Starred links: 1 amine or outer side, 2 acyl side, 3 side chain; linkers in the order of their positions; H or OH if unused. Positions of bridges follow the written chain, without caps; N, C: chain ends. Non-standard residues stand in square brackets, D forms with d. Groups on a side chain read outwards from the residue. Primed or numbered codes have the meaning given here. No end group written: not given here. *: point of attachment. 2Peg11′ = —[C(O)—CH2—CH2—(OCH2CH2)12—NH]— (PEG12 unit); PEG12 = NCCOCCOCCOCCOCCOCCOCCOCCOCCOCCOCCOCCOCCC(=O)O; C18 diacid = O=C(O)CCCCCCCCCCCCCCCCC(=O)*; Dip = N[C@H](C(=O)O)C(c1ccccc1)c1ccccc1; γGlu = O=C(O)[C@H](CCC(=O)[*:2])N[*:1]; Palmitoyl = CCCCCCCCCCCCCCCC(=O)*; β3hF = N[C@H](CC(=O)O)Cc1ccccc1; Isovaleryl = CC(C)CC(=O)*; AEEA = NCCOCCOCC(=O)O; Npc = nipecotic acid; Ahx = NCCCCCC(=O)O
T1: human ferroportin (SLC40A1) fused in frame with GFP, stably expressed in HEK293 cells (human, UniProt Q9NP59 1-571)
T1 sequence (looked up): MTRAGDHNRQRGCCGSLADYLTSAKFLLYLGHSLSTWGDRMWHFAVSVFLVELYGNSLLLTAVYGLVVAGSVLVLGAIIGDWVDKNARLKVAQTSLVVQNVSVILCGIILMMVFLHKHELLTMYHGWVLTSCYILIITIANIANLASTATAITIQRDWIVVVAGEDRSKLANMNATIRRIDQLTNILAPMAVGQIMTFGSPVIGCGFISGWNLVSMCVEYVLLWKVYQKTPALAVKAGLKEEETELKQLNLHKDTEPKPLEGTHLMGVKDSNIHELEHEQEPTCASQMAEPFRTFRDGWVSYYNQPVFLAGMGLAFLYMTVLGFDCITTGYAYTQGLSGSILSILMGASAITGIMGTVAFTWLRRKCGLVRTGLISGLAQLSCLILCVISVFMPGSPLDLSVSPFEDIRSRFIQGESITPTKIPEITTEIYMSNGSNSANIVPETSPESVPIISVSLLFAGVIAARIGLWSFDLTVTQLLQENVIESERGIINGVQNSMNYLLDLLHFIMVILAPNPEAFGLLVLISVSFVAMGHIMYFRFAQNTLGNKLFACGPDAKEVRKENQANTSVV

T2: ferroportin endogenously expressed on T47D human breast carcinoma cells (human, UniProt Q9NP59 1-571)
T2 sequence (looked up): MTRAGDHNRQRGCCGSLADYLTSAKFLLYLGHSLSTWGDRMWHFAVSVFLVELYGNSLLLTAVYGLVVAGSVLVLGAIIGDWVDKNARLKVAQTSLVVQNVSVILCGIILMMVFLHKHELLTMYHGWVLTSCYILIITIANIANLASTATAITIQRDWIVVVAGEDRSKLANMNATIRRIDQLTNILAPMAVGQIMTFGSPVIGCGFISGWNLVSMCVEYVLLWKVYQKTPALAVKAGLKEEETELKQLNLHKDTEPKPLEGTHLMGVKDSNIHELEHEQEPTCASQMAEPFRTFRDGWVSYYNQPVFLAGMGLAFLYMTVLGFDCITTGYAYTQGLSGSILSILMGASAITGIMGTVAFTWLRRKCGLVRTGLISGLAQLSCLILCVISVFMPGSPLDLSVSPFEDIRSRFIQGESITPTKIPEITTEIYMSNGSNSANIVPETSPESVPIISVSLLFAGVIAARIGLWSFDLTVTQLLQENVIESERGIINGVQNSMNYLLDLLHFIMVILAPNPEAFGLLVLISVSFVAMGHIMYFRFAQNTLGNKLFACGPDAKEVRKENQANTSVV

T3: human ferroportin (Homo sapiens, UniProt Q9NP59)
T3 construct: expressed in transfected cells
T3 sequence (Q9NP59 1-571): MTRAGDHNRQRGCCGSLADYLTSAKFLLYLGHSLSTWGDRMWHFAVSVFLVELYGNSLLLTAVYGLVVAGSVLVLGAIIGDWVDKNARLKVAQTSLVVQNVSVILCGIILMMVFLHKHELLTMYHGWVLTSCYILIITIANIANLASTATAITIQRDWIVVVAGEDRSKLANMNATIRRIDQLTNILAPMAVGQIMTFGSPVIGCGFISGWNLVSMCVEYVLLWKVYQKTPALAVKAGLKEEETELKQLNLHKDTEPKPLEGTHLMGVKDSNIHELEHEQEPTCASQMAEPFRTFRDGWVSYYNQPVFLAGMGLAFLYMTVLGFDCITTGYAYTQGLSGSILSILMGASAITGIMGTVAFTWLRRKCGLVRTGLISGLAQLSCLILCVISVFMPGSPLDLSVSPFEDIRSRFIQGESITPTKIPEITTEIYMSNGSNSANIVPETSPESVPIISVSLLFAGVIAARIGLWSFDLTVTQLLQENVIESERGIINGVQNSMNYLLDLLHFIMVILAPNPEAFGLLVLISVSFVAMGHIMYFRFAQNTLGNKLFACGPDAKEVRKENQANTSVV


molecular target: human ferroportin (SLC40A1) fused in frame with GFP, stably expressed in HEK293 cells (human) (UniProt Q9NP59); assay: cell-based or functional assay; settings: not given

Molecule	Potency EC50 (nM)	Potency EC50 [nM]
RI-Mini Hepcidin (peptide)	> 10000	–
Mini-Hepcidin 1-9 (peptide)	–	712
Hepcidin (peptide)	–	34

molecular target: T1, human ferroportin (SLC40A1) fused in …; assay: cell-based or functional assay; settings: not given

Molecule	FPN EC50 [nM]
XETHXPCIXXXC ([C18_diacid_Ahx_PEG2_PEG2]-E-T-H-[Dpa]-P-[Cys]-I-[(D)Lys]-[bhPhe]-[(D)Lys]-[Cys]-NH2) [Compound 99]	> 3000
Isovaleryl-ETH[Dip]PCIK(Ac)[β3hF]K(2Peg20K)RC-NH2 (disulfide 6-12 (inferred)) [Compound 46]	> 3000
Isovaleryl-ETH[Dip]PCIK(Ac)[β3hF]KRC-NH2 (disulfide 6-12 (inferred)) [Compound 42]	> 3000
XETHXPCIXXXXC (Isovaleric Acid-E-T-H-[Dpa]-P-[Cys]-I-[(D)Lys]-[Dpa]-[Lys(2Peg11′_Palm)]-[(D)Lys]-[Cys]-NH2) [Compound 2]	5
XETHXPCIXXXC (not fully specified; [Diacid_C18_isoGlu_PEG2_PEG2]-E-T-H-[Dpa]-P-[Cys]-I-[(D)Lys]-[bhPhe]-[(D)Lys]-[Cys]-NH2) [Compound 98]	> 3000
Isovaleryl-ETH[Dip][Npc]CI[dK][β3hF]K([Ahx-Palmitoyl])[dK]C-NH2 (disulfide 6-12 (inferred)) [Compound 5]	2.88
XETHXPCIXXXCX (Isovaleric Acid-E-T-H-[Dpa]-P-[Cys]-I-[Lys(Ac)]-[bhPhe]-[(D)Lys(Ac)]-[Cys]-[(D)Glu]-NH2) [Compound 123]	90
Isovaleryl-ETH[Dip]PCIK(2Peg20K)[β3hF]K([PEG12-Palmitoyl])RC-NH2 (disulfide 6-12 (inferred)) [Compound 50]	3.31
Isovaleryl-ETH[Dip]PCIK([2Peg11′-Palmitoyl])[β3hF]K(2Peg20K)RC-NH2 (disulfide 6-12 (inferred)) [Compound 47]	58.2
Isovaleryl-ETH[Dip]PCI[dK][β3hF]K([PEG12-Palmitoyl])RC-NH2 (disulfide 6-12 (inferred)) [Compound 27]	20
Isovaleryl-ETH[Dip]PCIK([Ahx-PEG20K])[β3hF]RC-NH2 (disulfide 6-11 (inferred)) [Compound 51]	103
XETHXPCIXXXC (Isovaleric Acid-E-T-H-[Dpa]-P-[Cys]-I-[Lys(1Peg2_1Peg2_Ahx_C18_Diacid)]-[bhPhe]-[(D)Lys]-[Cys]-NH2) [Compound 12]	9.81
XETHXPCIXXXC (Isovaleric Acid-E-T-H-[Dpa]-P-[Cys]-I-[Lys(2Peg11′_C18_Diacid)]-[bhPhe]-[(D)Lys]-[Cys]-NH2) [Compound 113]	8.06

molecular target: T1, human ferroportin (SLC40A1) fused in …; assay: cell-based or functional assay; settings: not given; remark: another data set of the same source

Molecule	FPN EC50 [nM]
XETHXPCIXXXC (Isovaleric Acid-E-T-H-[Dpa]-P-C-I-[Lys(1PEG2_1PEG2_Dap_C18_Diacid)]-[bhPhe]-[(D)Lys]-C-NH2) [Compound 278]	4.3
Isovaleryl-ETH[Dip]PCIK([PEG12-Palmitoyl])[β3hF]K(PEG40KB)RC-NH2 (disulfide 6-12 (inferred)) [Compound 295, listing 1 of 2 here]	1780
XXTHXPCIXXXC (Isovaleric Acid-[Glu_OMe]-T-H-[Dpa]-P-C-I-[Lys(1PEG2_1PEG2_Dap_C18_Diacid)]-[bhPhe]-[(D)Lys]-C-NH2) [Compound 279, listing 1 of 2 here]	11.4
XETHXPCIXXXC (Isovaleric Acid-E-T-H-[Dpa]-P-C-I-[Lys(Ahx_Palm)]-[bhPhe]-[(D)Lys(PEG20K)]-C-NH2) [Compound 312]	32.6
Isovaleryl-ETH[Dip]PCIK(PEG40KB)[β3hF]K([PEG12-Palmitoyl])RC-NH2 (disulfide 6-12 (inferred)) [Compound 296, listing 1 of 2 here]	1080
Isovaleryl-ETHFPCIK([AEEA-AEEA-γGlu-C18 diacid])FEPRSK(Ac)GCT (disulfide 6-16 (inferred)) [Compound 214]	> 3000
Isovaleryl-ETHFPCIK([AEEA-AEEA-γGlu-C18 diacid])FEPRSK(Ac)GCE (disulfide 6-16 (inferred)) [Compound 215]	> 3000
XETXXPCIXXXC (Isovaleric Acid-E-T-[His_1Me]-[Dpa]-P-C-I-[Lys(PEG12_Palm)]-[bhPhe]-[(D)Lys]-C-NH2) [Compound 202, listing 1 of 2 here]	25.6
XETHXPCIXXXC (Isovaleric Acid-E-T-H-[Dpa]-P-C-I-[Lys(1PEG2_1PEG2_Ahx_Palm)]-[bhPhe]-[(D)Lys(PEG20K-C-NH2)) [Compound 314]	357
XETHXPCIXXXC (Isovaleric Acid-E-T-H-[Dpa]-P-C-I-[Lys(1PEG2_1PEG2_Ahx_C18_Diacid)]-[bhPhe]-[(D)Lys(PEG40KB-C-NH2)) [Compound 297]	1360

molecular target: T2, ferroportin endogenously expressed on …; assay: cell-based or functional assay; settings: not given

Molecule	IC50: T47D Internalization MSA [nM]
XXTHXPCIXXXC (Isovaleric Acid-[Glu_OMe]-T-H-[Dpa]-P-C-I-[Lys(1PEG2_1PEG2_Dap_C18_Diacid)]-[bhPhe]-[(D)Lys]-C-NH2) [Compound 279, listing 2 of 2 here]	15.4
XETHXPCIXXXC (Isovaleric Acid-E-T-H-[(4F)Phe]-P-[Cys]-I-[Lys(2Peg11′_Palm)]-[bhPhe]-[(D)Lys]-[Cys]-NH2) [Compound 53]	1.3
Isovaleryl-ETH[Dip]PCIK([PEG12-Palmitoyl])[β3hF]K(PEG30K)RC-NH2 (disulfide 6-12 (inferred)) [Compound 294]	7.19
XETXXPCIXXXC (Isovaleric Acid-E-T-[His_1Me]-[Dpa]-P-C-I-[Lys(PEG12_Palm)]-[bhPhe]-[(D)Lys]-C-NH2) [Compound 202, listing 2 of 2 here]	4.3
XETHXXCIXXXC (Isovaleric Acid-E-T-H-[Dpa]-[Npc]-C-I-[Lys(1PEG2_1PEG2_IsoGlu_C18_Diacid)]-[bhPhe]-[(D)Lys]-C-NH2) [Compound 272]	137
Isovaleryl-ETHFPCIK([γGlu-C18 diacid])FEPRSKGCK-NH2 (not fully specified (bridges); cysteine pairing not given here) [Compound 222]	> 1000
XETHXPCIXXXC (not fully specified; Isovaleric Acid-E-T-H-[Dpa]-P-C-I-[Lys(1PEG2_1PEG2_Ahx_C18_Diacid)]-[bhPhe]-[(D)Lys(PEG7_OMe)]-C-NH2) [Compound 256]	68.9
Isovaleryl-ETH[Dip]PCIK([PEG12-Palmitoyl])[β3hF]K(PEG40KB)RC-NH2 (disulfide 6-12 (inferred)) [Compound 295, listing 2 of 2 here]	9.22
XETHXPCIXXXXC (Isovaleric Acid-E-T-H-[Dpa]-P-[Cys]-I-[(D)Lys]-[bhPhe]-[Lys(Ahx_Palm)]-[(D)Lys]-[Cys]-NH2) [Compound 6]	1.95
Isovaleryl-ETH[Dip]PCIK(PEG40KB)[β3hF]K([PEG12-Palmitoyl])RC-NH2 (disulfide 6-12 (inferred)) [Compound 296, listing 2 of 2 here]	109
XETHXPCIXXXXC (Isovaleric Acid-E-T-H-[Dpa]-P-[Cys]-I-[(D)Lys(2Peg11′_OMe)]-[bhPhe]-[Lys(Ahx_Palm)]-[(D)Lys(2Peg11′_OMe)]-[Cys]-NH2) [Compound 19]	2.56

molecular target: T3, human ferroportin; assay: FPN activity assay: internalization/degradation of ferroportin-GFP in stably transfected HEK293 cells (decrease in GFP fluorescence); assay type: cell-based; settings: Table 2A; HEK293 cells expressing human ferroportin-GFP, at least 18 hours incubation
Procedure: Following internalization, the ferroportin protein is degraded.
A retro inverse peptide is a peptide with a reversed sequence in all D amino acids. An example is that Hy-Glu-Thr-His-NH2 becomes Hy-DHis-DThr-DGlu-NH2. The EC50 of these reference compounds for ferroportin internalization/degradation was determined according to the FPN activity assay described above. These peptides served as control standards.
These values were determined as described herein.

Molecule	EC50 [nM]
Isovaleric Acid-E-T-H-[Dpa]-P-[Cys]-I-[Lys(2Peg11′_Palm)]-[bhPhe]-[Lys(2Peg20K)]-R-[Cys]-NH2 [Compound 47]	58.2

test system: LAD2 cells; assay: not given; assay type: cell-based, human; settings: LAD2 mast cells, β-hexosaminidase release, 30 minutes incubation; read-out: EC50: LAD2
Description: In anaphylactoid reactions, the main mechanism involves the direct stimulation of mast cells or basophils, leading to the release of anaphylactic mediators such as histamine and β-hexosaminidase. A recent study by McNeil et al. (McNeil B D et al., 2015) reported that MrgprX2, a specific membrane receptor on human mast cells, induces anaphylactoid reactions. The LAD2 (Laboratory of Allergic Diseases 2) human mast cell line, derived from human mast cell sarcoma/leukemia (Kirshenbaum et al., 2003), is commonly employed to study anaphylactoid reactions, because its biological properties are identical to those of primary human mast cells, including the overexpression of the MrgprX2 receptor and sensitivity towards degranulating peptides (Kulka et al., 2008). The release of anaphylactic mediators such as f-hexosaminidase, is assessed by fluorometric quantification.
On the day of the assay, serial dilutions of compounds were added to LAD2 cells plated at 20000 cells/well in a 96-well plate. After incubation for 30 minutes, the amount of β-hexosaminidase released into the supernatants and in cell lysates was quantified using the fluorogenic substrate 4-methylumbelliferyl-N-acetyl-b-D-glucosaminide. Dose-response curves were generated by plotting the % of β-hexosaminidase release (y-axis) against the concentrations of peptides tested (x-axis). […]. (Table 2D).

Molecule	EC50 [nM]
Isovaleric Acid-E-T-H-[Dpa]-P-[Cys]-I-[Lys(2Peg11′_Palm)]-[bhPhe]-[Lys(2Peg20K)]-R-[Cys]-NH2 [Compound 47]	> 12500

Reference: patent US20230295259A1 (Protagonist Therapeutics, Inc., priority 2020, published 2023)
